Results on two molecules are retold here after patent publication US6100032, “Human Smad3 and Smad4 are sequence-specific transcription activators” (Johns Hopkins University).

Data set [1] deals with T1, GST-Smad2/MH1 (Homo sapiens, UniProt Q15796 Q15796:1-242). Nature of the data set: EMSA; data not shown. Conditions: tags: GST N-terminal (pGEX2TK, Pharmacia); label: 32P. The procedure:
To evaluate whether the analogous domain of human Smad proteins could bind DNA, GST fusion proteins containing the MH1 domains of Smads 2, 3, and 4 were constructed and expressed in $E. coli$. Electrophoresis mobility shift assays (EMSA) were performed using the purified proteins and labeled oligonucleotides containing the optimal sequence from Vg, essentially as described by Kim et al ). […] However, the binding was relatively inefficient, typically resulting in shifts of less than 5% of the input Vg probe. Several experimental manipulations were employed to increase the efficiency of binding (such as variations of cation, salt concentration, competitor, and other components of the binding buffer) without success.
DNA-binding assays were performed essentially as described except that poly (dI-dC), 6 ug/ml, was used as the only competitor and 2% NP-40 was included in the reaction mix. For binding to PCR products derived from clones (e.g., FIG. 1), 1.0–0.5 ug protein […] and 50 ng of DNA end-labeled to 2×10^6 dpm/ug, was used. For binding to oligonucleotides, 0.3–0.5 ug of protein (~0.4 uM final concentration) and 0.5 ng of DNA end-labeled to 2×10^8 dpm/ug, was used. […] Quantitation of binding was performed using an Instant Imager (Packard).
On the technique in general: A gel shift assay detects complexes by their altered migration in electrophoresis.

For a further data set, the target named is Smad4 (non-fusion) (Homo sapiens, UniProt Q13485 Q13485:1-552). Nature of the data set: EMSA; data not shown. Conditions: tags: none; rabbit reticulocyte lysate; label: 32P.
Sequence of Smad4 (non-fusion) (Q13485 whole entry, the tested form may be a part, one chain of several): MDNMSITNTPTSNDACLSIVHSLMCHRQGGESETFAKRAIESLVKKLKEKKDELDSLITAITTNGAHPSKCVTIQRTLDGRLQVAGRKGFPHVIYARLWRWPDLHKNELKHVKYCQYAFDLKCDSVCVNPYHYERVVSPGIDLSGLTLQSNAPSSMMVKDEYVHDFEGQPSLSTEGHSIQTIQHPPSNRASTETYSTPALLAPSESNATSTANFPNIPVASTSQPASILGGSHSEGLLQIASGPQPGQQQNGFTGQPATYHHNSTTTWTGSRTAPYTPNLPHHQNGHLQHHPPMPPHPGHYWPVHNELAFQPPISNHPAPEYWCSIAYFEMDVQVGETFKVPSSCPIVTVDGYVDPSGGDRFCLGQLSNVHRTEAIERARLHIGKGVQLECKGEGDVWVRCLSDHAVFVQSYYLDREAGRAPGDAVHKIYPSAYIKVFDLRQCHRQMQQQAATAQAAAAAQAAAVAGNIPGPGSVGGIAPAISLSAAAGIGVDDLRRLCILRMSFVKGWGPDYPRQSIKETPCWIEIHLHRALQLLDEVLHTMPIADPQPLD
For a further data set, the target named is His6-Smad4 full length (Homo sapiens, UniProt Q13485 Q13485:1-552). The data set is described as follows: EMSA; full-length Smad4. The note with it: tags: His6 (pET33b, Novagen); label: 32P. The procedure:
(§1) (FIG. 2B) The ^32P-labeled SBE probe was incubated with 0.6 ug of a fusion protein containing either the MH1 domain of Smad4 (lane 1) or 0.4–1.6 ug of a fusion protein containing FL Smad4 (lanes 2–5).
(§2) DNA-binding assays were performed essentially as described except that poly (dI-dC), 6 ug/ml, was used as the only competitor and 2% NP-40 was included in the reaction mix. For binding to PCR products derived from clones (e.g., FIG. 1), 1.0–0.5 ug protein […] and 50 ng of DNA end-labeled to 2×10^6 dpm/ug, was used. For binding to oligonucleotides, 0.3–0.5 ug of protein (~0.4 uM final concentration) and 0.5 ng of DNA end-labeled to 2×10^8 dpm/ug, was used. Specificity of binding was checked by competition with unlabeled SBE oligonucleotides and lack of competition with irrelevant oligonucleotides. Quantitation of binding was performed using an Instant Imager (Packard).

Another data set addresses GST-Smad4/FL (Homo sapiens, UniProt Q13485 Q13485:1-552). Nature of the data set: EMSA; full-length Smad4. Conditions: tags: GST N-terminal (pGEX2TK, Pharmacia); label: 32P. As to the method:
as §1, §2

For the next data set, the target named is GST-Smad3/MH1 (Homo sapiens, UniProt P84022 P84022:1-200). Nature of the data set: EMSA; bound to same extent as longer selected-clone probes; poly(dI-dC), 2% NP-40. The note with it: tags: GST N-terminal (pGEX2TK, Pharmacia); label: 32P. As to the method:
as §1, §2

For the next data set, the target named is GST-Smad4/MH1 (Homo sapiens, UniProt Q13485 Q13485:1-276). Described as above. Conditions: tags: GST N-terminal (pGEX2TK, Pharmacia); label: 32P. As to the method:
as §1, §2

The target in data set [2] is T1, GST-Smad2/MH1. Nature of the data set: EMSA; did not bind the palindrome (data not shown); exact probe not stated. Conditions: tags: GST N-terminal (pGEX2TK, Pharmacia); label: 32P.

T1 sequence (Q15796 1-242, one chain of several): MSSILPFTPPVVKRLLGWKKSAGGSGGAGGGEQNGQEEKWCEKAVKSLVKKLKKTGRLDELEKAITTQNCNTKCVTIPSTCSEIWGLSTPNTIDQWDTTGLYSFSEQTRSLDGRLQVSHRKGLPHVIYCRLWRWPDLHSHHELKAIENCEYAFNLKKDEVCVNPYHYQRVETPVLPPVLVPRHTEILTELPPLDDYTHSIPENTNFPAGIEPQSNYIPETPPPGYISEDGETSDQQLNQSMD
Sequence of GST-Smad3/MH1 (P84022 1-200, one chain of several): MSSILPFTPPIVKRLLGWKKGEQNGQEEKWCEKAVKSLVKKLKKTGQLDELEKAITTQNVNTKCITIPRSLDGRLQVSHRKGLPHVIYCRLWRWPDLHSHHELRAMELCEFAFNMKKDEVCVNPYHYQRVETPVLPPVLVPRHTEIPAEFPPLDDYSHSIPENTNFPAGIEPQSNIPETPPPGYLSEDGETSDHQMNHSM
Sequence of GST-Smad4/FL (Q13485 whole entry, one chain of several): as the sequence (Q13485 whole entry, the tested form may be a part, one chain of several) above
Sequence of His6-Smad4 full length (Q13485 whole entry, the tested form may be a part, one chain of several): as above
Sequence of GST-Smad4/MH1 (Q13485 1-276, one chain of several): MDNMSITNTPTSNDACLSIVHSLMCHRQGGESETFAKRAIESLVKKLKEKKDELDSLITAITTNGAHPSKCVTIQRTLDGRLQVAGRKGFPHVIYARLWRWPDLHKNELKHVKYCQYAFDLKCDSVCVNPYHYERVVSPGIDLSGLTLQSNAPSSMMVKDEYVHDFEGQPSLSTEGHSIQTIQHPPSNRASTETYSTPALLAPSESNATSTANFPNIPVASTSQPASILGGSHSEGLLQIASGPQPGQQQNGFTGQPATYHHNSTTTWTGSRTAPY

B1: Vg probe (dsDNA)
DNA 1: TTTGTGCTTGGCTGCCGTCGCGATTCGACAACTTTGG
DNA 2: CCAAAGTTGTCGAATCGCGACGGCAGCCAAGCACAAA
In the case of B1, the binding result with GST-Smad2/MH1 [1] is “no binding”.

B2: SBE probe (26 bp) (dsDNA)
DNA 1: GGAGTATGTCTAGACTGACAATGTAC
DNA 2: GTACATTGTCAGTCTAGACATACTCC
For the molecule B2, the binding result with Smad4 (non-fusion) is reported as “binds”; with His6-Smad4 full length, “binds”; with GST-Smad4/FL it was “binds”; with GST-Smad3/MH1, “binds”; with GST-Smad4/MH1, “binds”; with GST-Smad2/MH1 [2] it was “no binding”.
